According to the supplement of paper PMC7125110:
± gives the standard error. Fewer inactive variants are shown than the library holds.

B1: glmS ribozyme (parent)
chain: AUAAAAGCGCCAGAACUACAGAAAUGUAGUUGACGAGGAGGAGGUUUAUCGAAUUUUCGGCGGAUGCCUCCAAA

Columns and labels:
Conditions in all cases: with glucosamine-6-phosphate
glucosamine-6-phosphate [1] = variants of: B1; test: self-cleavage kobs at 40 uM GlcN6P; higher = faster cleavage; RNA array
Outline: (§1)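 kobs was derived by fitting per-tile medians to one- or two-exponential decays after normalising signals to baseline and to non-cleaving reference variants. Those signals came from barcoded ribozyme variants transcribed in situ by E. coli RNA polymerase on sequenced MiSeq chips, followed through a hybridised Cy3 probe at 37 °C and imaged over ~14 h. Glucosamine-6-phosphate (40 μM to 10 mM) in HEPES/KCl/Mg(OAc)2 buffer was flowed in. Weighted Michaelis–Menten fits across concentrations then gave kcat and KM.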

glucosamine-6-phosphate [2] = variants of: B1; test: self-cleavage kobs at 10000 uM GlcN6P; higher = faster cleavage; RNA array
Outline: as §1

glucosamine-6-phosphate [3] = variants of: B1; test: self-cleavage kobs at 160 uM GlcN6P; higher = faster cleavage; RNA array
Outline: as §1

glucosamine-6-phosphate [4] = variants of: B1; test: self-cleavage kobs at 640 uM GlcN6P; higher = faster cleavage; RNA array
Outline: as §1

glucosamine-6-phosphate [5] = variants of: B1; test: self-cleavage kobs at 2500 uM GlcN6P; higher = faster cleavage; RNA array
Outline: as §1

Variant | self-cleavage kobs at 40 uM GlcN6P (glucosamine-6-phosphate [1]) [s⁻¹] | self-cleavage kobs at 10000 uM GlcN6P (glucosamine-6-phosphate [2]) [s⁻¹] | self-cleavage kobs at 160 uM GlcN6P (glucosamine-6-phosphate [3]) [s⁻¹] | self-cleavage kobs at 640 uM GlcN6P (glucosamine-6-phosphate [4]) [s⁻¹] | self-cleavage kobs at 2500 uM GlcN6P (glucosamine-6-phosphate [5]) [s⁻¹]
AUAAAAGCGCCGGAACUACAGAAAUGUAGUUGGCGAGGAGGAGGUUUAUCGAAUUUGCGGCGGAUGCCUCCAAA [A12G A33G U57G] | < 1e-05 |  |  |  | 
AUAAAAGCGCCGGAAGUACAGAAAUGUAGUUGACGAGGAGGAGGUUUAUCGAUUUUUCGGCGGAUGCCUCAAAA [A12G C16G A53U C71A] | < 1e-05 |  |  |  | 
AUAAAAGCGCCGGAACUACAGAAAUGUAGUUGACGAGGAGGAGGUUUGUCGAAUUUUCGGCGAGUGCCUCCAAA [A12G A48G G63A A64G] | < 1e-05 | < 1e-05 |  |  | 
AUAAAAGCGCCGGAACUACAGAAAUGUAGUUCACGAUGAGGAGGUUUAUCGAAUUUUCGGCGGAUGCCUCGAAA [A12G G32C G37U C71G] | < 1e-05 |  |  |  | 
AUAAAAGCGCUAGAACUACAGAAAUGUAUUUGACGAGGUGGAGGUUUAUCGAAUUUUCGGCGGUUGCCUCCAAA [C11U G29U A39U A64U] | < 1e-05 |  |  |  | 
AUAAAAGCGCCGGAACUACAGAAAUGUAGUUGACGCGGAGGAGGUUUAUCGAAUUUUCGGCGGAUGCCUCCAAA [A12G A36C] | < 1e-05 |  | < 1e-05 | < 1e-05 | < 1e-05
AUAAAAGCGCCGGAACUACAGAAAUGUAGUUGACGAGAAGGAGGUUUAUCGAAUUUUCGGCGGAUUCCUCCAAA [A12G G38A G66U] | < 1e-05 | < 1e-05 | < 1e-05 | < 1e-05 | 
AUAAAAGCGCCCGAACUACAGAAAUGUAGUUGACGAGGAGGAGGGUUAUCGAAUUUUCGGCGGAUGCCUCCAAA [A12C U45G] | 0.000128 ± 4.1e-05 | 0.012 ± 0.004 |  |  | 
AUAAAAGCGCCCGAACUACAGAAAUGUAGUUGAUGAGGAGGAGCUUUAUCGAAUUAACGGCGGAUGCCUCCAAA [A12C C34U G44C U56A U57A] | < 1e-05 | < 1e-05 |  |  | 
AUAAAAGCGCCCGAACUACAGAAAUGUAGUUGACGAGGAGGAGGUUUAUCGAACUUUCGGCGGAUGCCUCCAAA [A12C U54C] | 0.00107 ± 0.00014 | 0.0203 ± 0.0043 | 0.00117 ± 0.00027 | 0.0063 ± 0.0021 | 0.0137 ± 0.0032
AUAAAAGCGCUAGAACUACAGAAAUGUAGUUGACGAGGAGGAGGUAUAUCGAAUUUUCGGCGGAUGCCUCCAAA [C11U U46A] | < 1e-05 | 9.01e-05 ± 1.7e-05 | < 1e-05 |  | 4.03e-05 ± 1.7e-05
AUAAAAGCGCUACAAAUACAGAAAUGUAGUUGACGAGGAGGAGGUUUAACGAAUUUUCGGCGGAUGCCUCCAAA [C11U G13C C16A U49A] | < 1e-05 |  | < 1e-05 | < 1e-05 | 
AUAAAAGCGCCCGAACUACAGAAAUGUAGUUGACGAGGAGGAGGUUUAUGGAAUUUUCGGCGGAUGCCUCCAAA [A12C C50G] | 5.75e-05 ± 1.5e-05 |  | 0.000244 ± 8.9e-05 | 5.32e-05 ± 1.5e-05 | 8.38e-05 ± 1.9e-05
AUAAAAGCGCCCGGACUACAGAAAUGUAGUUGACGAGGAGGAGGUUUAUCGAUUUUUCGGCGGAUGGCUCCAAA [A12C A14G A53U C67G] | 9.17e-05 ± 2.3e-05 | 0.00219 ± 0.00062 |  |  | 
